Laboratory results from article PMC10567725, “Structure of full-length cobalamin-dependent methionine synthase and cofactor loading captured in crystallo” (Nature Communications, 2023).

What was measured:
Assay in all cases: purified protein
purified protein [1] = substrate: CN1c2c(nc(N)[nH]c2=O)NC[C@@H]1CNc1ccc(C(=O)N[C@@H](CCC(=O)O)C(=O)O)cc1; details: 100 µM homocysteine, SAM, aquacobalamin, DTT, pH 7.2, 50 °C, holo-tMS (MeCbl), pH 7.2
purified protein [2] = substrate: C[S+](CC[C@H](N)C(=O)O)C[C@H]1O[C@@H](n2cnc3c(N)ncnc32)[C@H](O)[C@@H]1O; details: 1.25 mM DL-homocysteine, 104 µM (6S)-methyltetrahydrofolate, 50 °C, holo-tMS, reactivation (reductive methylation of cob(II)alamin)
purified protein [3] = substrate: NC(CCS)C(=O)O; assay type: biochemical, Thermus thermophilus; details: 250 µM CH3-H4folate, SAM, aquacobalamin, DTT, pH 7.2, 50 °C, holo-tMS, DL-homocysteine varied

B1: tMS (full-length cobalamin-dependent methionine synthase) (Thermus thermophilus HB8) (protein)
chain: MVEVHACSPGCRHHLGGAGWGDAPLVRLGYNKEARAKKFPYLKALLERPLVFDGAMGTELQKRDLTPEDYGGEAYFGCPEVLNRTRPEVVREIHLAYLEAGAEVIETNTFGALRHVLAEYGLEEAAEELAFLGARIAREAADPHGAFVAGALGPGTKLVSLGQISWDALYRAYKEAARGLLKGGVDLILLETAQDILQVRCAVLAVREAMAEVGREVPLQVQVTFEATGTMLVGTDEQAALAALESLPVDVVGMNCATGPDLMDSKVRYFAEHSTRFVSCLPNAGLPRNEGGRVVYDLTPEELAKWHLKFVAEYGVNAVGGCCGTGPEHIRKVAEAVKGLAPKPRPESFPPQVASLYQAVSLKQEASLFLVGERLNATGSKRFREMLFARDLEGILALAREQVEEGAHALDLSVAWTGRDELEDLRWLLPHLATALTVPVMVDSTSPEAMELALKYLPGRVLLNSANLEDGLERFDRVASLAKAHGAALVVLAIDEKGMAKTREEKVRVALRMYERLTEHHGLRPEDLLFDLLTFPITQGDEESRPLAKETLLAMEELRERLPGVGFVLGVSNVSFGLKPRARRVLNSVFLDEARKRGLTAAIVDAGKILPISQIPEEAYALALDLIYDRRKEGFDPLLAFMAYFEAHKEDPGKREDAFLALPLLERLKRRVVEGRKQGLEADLEEALKAGHKPLDLINGPLLAGMKEVGDLFGAGKMQLPFVLQAAEVMKRAVAYLEPHMEKKGEGKGTLVLATVKGDVHDIGKNLVDIILSNNGYRVVNLGIKVPIEEILKAVEAHKPHAVGMSGLLVKSTLVMKENLEYMRDRGYTLPVILGGAALTRSYVEELRAIYPNVYYAEDAFEGLRLMEELTGHAPPELTRKAPARPKREAPKVAPRARPVGEAPAVPRPPFFGVRVEEGLDLATIAHYVNKLALYRGQWGYSRKGLSREAWQALVEREAEPVFQRLLKEAMAEGWLEPKVLYGFFPVAREGEELLVFSPETGEVLERFRFPRQKGGGLSLVDYFRPRFAAPLGDEADWMPKEAFRAGARDVLGVQLVTMGEAPSRKAQALFASGAYQDYLFVHGFSVEMTEALAEYWHKRMRQMWGIAHQDATEIQKLFQQGYQGARYSFGYPACPDLADQAKLDRLMGFHRVGVRLTENFQLEPEHATSALVVHHPEARYFSVD
notes: full-length wild type, five modules Hcy:Fol:Cap:Cob:Act, N-terminal His tag with TEV site (cut), E. coli BL21star(DE3); holoenzyme reconstituted with MeCbl; 132 kDa
Km (purified protein [1]): 18 ± 4.1 µM | Km (purified protein [2]): 1.0 ± 0.1 µM | Km (purified protein [3]): 9.3 ± 3.1 µM
